The values below come from article PMC3458555 (Nucleic Acids Research, 2012).

Where two headings read alike, the source gives them in different places.

In series [1] the target is Zfp206SCANΔH1–Zfp110SCAN fusion protein (not stated | mouse) (UniProt Q3URR7). Briefly: SEC.
For series [2], the target named is Zfp206SCAN–Zfp110SCAN ΔH1 fusion protein (not stated | mouse) (UniProt Q3URR7). Nature of the series: SEC.
Series [3] concerns the molecule itself. Briefly: SEC. (SEC sorts molecules by how far they enter the pores of the column.)
Series [4] deals with the molecule itself. Briefly: SEC. This is another data set of the same source.
Series [5] concerns the molecule itself.

As for “Zfp206SCANΔH1–Zfp110SCAN fusion protein (from UniProt Q3URR7 36-128)”, the stoichiometry N – broadly, a count of units in the complex or per binding partner – in series [1] was determined as 2.
“Zfp206SCAN–Zfp110SCAN ΔH1 fusion protein (from UniProt Q3URR7 36-128)”: the stoichiometry N in series [2] worked out at 2.

B1: Zfp206SCAN–ZNF174SCAN fusion protein (other)
chain: RPRPEVAHQLFRCFQYQEDMGPRASLGRLRELCNHWLRPALHTKKQILELLVLEQFLSVLPPHVLSRLHGQPLRDGEEVVQLLEGVPRDISHMRQGFRHFCYQEVSGPQEALSCLQQLCRQWLQPELHTKEQILELLVMEQFLVILPPEIQAQVWHRYPKSSREIVTLVEDLHR
Regarding B1, the “stoichiometry N” value in the series “SEC [3]” worked out at 2.

B2: Zfp206SCAN (SCAN domain of Zfp206, tag-free) (domain or fragment)
chain: GRPRPEVAHQLFRCFQYQEDMGPRASLGRLRELCNHWLRPALHTKKQILELLVLEQFLSVLPPHVLSRLHGAPLRDGEEVAQLEGVPRDISHM
Turning to B2, the “stoichiometry N” value in the series “SEC [4]” is 2.

B3: MBP-Zfp206SCAN (domain or fragment)
chain: GRPRPEVAHQLFRCFQYQEDMGPRASLGRLRELCNHWLRPALHTKKQILELLVLEQFLSVLPPHVLSRLHGAPLRDGEEVAQLEGVPRDISHM
With B3, the “stoichiometry N” value in series [5] amounted to 2.

B4: Zfp110SCAN (SCAN domain of Zfp110) (domain or fragment, mouse, UniProt A0A0R4J249 154-247, looked up)
chain: RLTDTEASRQKFRHFQYEESAGPQKAMSQLRKLCHQWLQPNTRSKKQILELLVLEQFLNALPEKFRVWVESQHPEDCKAVVALLENMTSVSKDD
B4: the “stoichiometry N” value in “SEC [4]” was 2.
